For data set [1] the following is noted: rat, tissue homogenate.
Data set [2] has as its target soluble fibrin fragment DD(E). In words: DD. The following applies: read-out: Ki, inhibition of binding of a fluorescent peptide to DD(E); TBS·Ca; DD(E) 1.5 μM, Fl 1 μM; uncertainties estimated at ±10%.
Data set [3] can be described thus: in vitro. The following applies: male, Sprague Dawley, rat, tissue homogenate.
Data set [4] has as its target T1, human fibrinogen (Homo sapiens, UniProt P02671+P02675+P02679).
T1 sequence (P02671 20-629 limits assumed): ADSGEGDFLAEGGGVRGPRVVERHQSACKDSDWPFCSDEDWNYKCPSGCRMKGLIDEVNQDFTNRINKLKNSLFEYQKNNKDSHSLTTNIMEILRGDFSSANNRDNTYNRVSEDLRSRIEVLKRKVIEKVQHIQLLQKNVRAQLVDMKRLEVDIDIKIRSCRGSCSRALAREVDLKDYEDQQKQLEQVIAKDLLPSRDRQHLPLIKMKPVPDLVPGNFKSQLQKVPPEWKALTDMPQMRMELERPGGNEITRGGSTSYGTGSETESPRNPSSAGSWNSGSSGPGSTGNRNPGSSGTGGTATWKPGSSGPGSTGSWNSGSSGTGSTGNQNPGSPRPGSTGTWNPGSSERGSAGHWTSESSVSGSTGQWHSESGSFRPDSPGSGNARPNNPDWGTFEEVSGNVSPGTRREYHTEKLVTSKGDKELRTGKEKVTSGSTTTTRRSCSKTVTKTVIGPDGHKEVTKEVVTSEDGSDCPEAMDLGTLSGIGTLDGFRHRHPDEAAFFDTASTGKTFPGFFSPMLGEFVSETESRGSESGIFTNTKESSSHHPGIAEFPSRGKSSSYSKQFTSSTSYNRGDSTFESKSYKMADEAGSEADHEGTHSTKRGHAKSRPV
T1 sequence (P02675 31-491): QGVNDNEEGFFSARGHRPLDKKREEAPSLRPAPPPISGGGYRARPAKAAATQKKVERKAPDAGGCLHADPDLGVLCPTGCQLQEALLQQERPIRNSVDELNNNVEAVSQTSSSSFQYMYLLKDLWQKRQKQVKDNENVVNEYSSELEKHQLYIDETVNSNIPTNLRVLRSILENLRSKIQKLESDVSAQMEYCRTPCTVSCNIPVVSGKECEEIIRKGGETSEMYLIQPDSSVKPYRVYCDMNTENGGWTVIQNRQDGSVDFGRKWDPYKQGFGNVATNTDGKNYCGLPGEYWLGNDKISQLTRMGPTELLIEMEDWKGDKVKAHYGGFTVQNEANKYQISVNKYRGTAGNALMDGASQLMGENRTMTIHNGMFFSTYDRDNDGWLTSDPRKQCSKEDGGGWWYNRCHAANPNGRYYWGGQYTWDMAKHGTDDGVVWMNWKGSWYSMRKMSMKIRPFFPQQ
T1 sequence (P02679 27-433 limits assumed): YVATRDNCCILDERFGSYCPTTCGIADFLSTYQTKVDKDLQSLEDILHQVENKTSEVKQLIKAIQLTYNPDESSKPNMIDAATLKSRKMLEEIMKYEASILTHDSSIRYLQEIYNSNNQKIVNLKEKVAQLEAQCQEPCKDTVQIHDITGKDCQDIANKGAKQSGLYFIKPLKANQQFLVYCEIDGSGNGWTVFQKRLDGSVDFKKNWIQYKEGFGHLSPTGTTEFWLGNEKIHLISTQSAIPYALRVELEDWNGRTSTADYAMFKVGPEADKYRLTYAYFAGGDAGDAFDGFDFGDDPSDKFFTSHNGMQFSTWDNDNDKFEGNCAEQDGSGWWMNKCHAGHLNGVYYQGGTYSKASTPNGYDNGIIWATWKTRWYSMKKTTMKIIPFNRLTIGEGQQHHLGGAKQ
The experiment in a line: NMRD relaxivity in human fibrinogen/TBS solution. It is filed as physicochemical. The following applies: 30 μM human fibrinogen/TBS, 35 °C.

The target in data set [5] is T2, gelled human fibrin (Homo sapiens, UniProt P02671+P02675+P02679).
T2 sequence (P02671 20-644 isoform P02671-2 limits assumed): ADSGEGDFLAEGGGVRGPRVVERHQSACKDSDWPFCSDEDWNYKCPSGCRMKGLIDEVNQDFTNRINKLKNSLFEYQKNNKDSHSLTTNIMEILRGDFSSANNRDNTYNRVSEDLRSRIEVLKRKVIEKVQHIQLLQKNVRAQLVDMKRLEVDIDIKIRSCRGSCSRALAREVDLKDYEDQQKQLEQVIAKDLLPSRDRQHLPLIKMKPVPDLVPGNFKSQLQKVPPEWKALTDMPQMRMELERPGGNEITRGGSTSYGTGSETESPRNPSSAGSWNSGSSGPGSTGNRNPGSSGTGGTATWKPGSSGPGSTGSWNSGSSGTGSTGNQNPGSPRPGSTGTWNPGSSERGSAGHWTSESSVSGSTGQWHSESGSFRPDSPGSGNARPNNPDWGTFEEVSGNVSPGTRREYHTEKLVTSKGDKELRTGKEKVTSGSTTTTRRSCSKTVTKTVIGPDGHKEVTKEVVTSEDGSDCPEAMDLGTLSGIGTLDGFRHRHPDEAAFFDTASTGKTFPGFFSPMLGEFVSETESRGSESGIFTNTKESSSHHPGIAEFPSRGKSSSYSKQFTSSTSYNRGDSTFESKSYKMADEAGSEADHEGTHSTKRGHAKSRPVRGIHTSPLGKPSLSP
T2 sequence (P02675 45-491 limits assumed): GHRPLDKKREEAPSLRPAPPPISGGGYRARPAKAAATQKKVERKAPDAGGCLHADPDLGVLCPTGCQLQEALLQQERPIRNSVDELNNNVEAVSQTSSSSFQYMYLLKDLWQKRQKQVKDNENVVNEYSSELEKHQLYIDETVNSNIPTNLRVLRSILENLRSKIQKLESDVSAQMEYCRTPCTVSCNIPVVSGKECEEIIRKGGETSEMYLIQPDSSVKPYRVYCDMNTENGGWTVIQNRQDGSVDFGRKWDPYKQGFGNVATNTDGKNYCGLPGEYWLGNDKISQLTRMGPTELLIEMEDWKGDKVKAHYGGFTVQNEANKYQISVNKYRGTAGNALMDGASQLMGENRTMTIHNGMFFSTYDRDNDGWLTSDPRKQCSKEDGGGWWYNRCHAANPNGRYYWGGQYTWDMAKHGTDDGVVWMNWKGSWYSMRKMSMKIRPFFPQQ
T2 sequence (P02679 27-437 isoform P02679-2 limits assumed): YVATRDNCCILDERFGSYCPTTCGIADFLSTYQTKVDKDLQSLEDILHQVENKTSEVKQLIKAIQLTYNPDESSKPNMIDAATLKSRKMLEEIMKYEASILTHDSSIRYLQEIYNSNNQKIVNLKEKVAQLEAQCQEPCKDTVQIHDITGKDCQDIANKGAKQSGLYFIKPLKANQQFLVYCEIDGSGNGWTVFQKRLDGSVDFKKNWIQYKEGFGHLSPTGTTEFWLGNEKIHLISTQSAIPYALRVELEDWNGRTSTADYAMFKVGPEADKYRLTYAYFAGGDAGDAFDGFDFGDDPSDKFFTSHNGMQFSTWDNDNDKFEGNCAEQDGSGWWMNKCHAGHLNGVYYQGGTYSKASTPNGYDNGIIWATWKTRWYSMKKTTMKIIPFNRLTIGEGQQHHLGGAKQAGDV
The experiment in a line: Relaxivity / variable temperature NMRD in fibrin gel. It is filed as physicochemical.

A short description of data set [6]: Variable temperature NMRD and O-17 NMR relaxation in TBS. It is filed as physicochemical.
In data set [7] the test system is arterial thrombosis. The following applies: guinea pig; cited from earlier work.

A word on the Ki: it is the dissociation constant of the complex between target and ligand, obtained from inhibition or displacement. A word on the half-life: it is the time needed for the level to fall by half in the phase considered. A lower half-life goes with rapid decline.

For the compound `CC(C)C[C@H](NC(=O)[C@@H]1CSSC[C@H](NC(=O)[C@@H]2CCCN2C(=O)[C@H](CC(C)C)NC(=O)[C@H](CNC(=O)C(CN(CCN(CC(=O)O)CC(=O)O)CC(=O)O)N(CC(=O)O)CC(=O)O)NC(=O)C(CN(CCN(CC(=O)O)CC(=O)O)CC(=O)O)N(CC(=O)O)CC(=O)O)C(=O)N[C@@H](CC(=O)O)C(=O)N[C@@H](Cc2ccc(O)cc2)C(=O)N[C@@H](Cc2ccc(O)cc2)C(=O)NCC(=O)N[C@@H]([C@@H](C)O)C(=O)N1)C(=O)N[C@@H](CC(=O)O)C(=O)NCc1ccc(CNC(=O)[C@H](CNC(=O)C(CN(CCN(CC(=O)O)CC(=O)O)CC(=O)O)N(CC(=O)O)CC(=O)O)NC(=O)C(CN(CCN(CC(=O)O)CC(=O)O)CC(=O)O)N(CC(=O)O)CC(=O)O)cc1` (some centres unmarked) [Compound 4], the “fold increase in metabolic stability” value in data set [1] was in the range of 6 to 7 fold. The Ki in data set [2] is 12 µM. Also, the half-life at 100 µM in data set [3] turned out to be 1.09 h.

For the compound `CC(C)C[C@H](NC(=O)CN(CCNC(=O)C(CN(CCN(CC(=O)O)CC(=O)O)CC(=O)O)N(CC(=O)O)CC(=O)O)CCNC(=O)C(CN(CCN(CC(=O)O)CC(=O)O)CC(=O)O)N(CC(=O)O)CC(=O)O)C(=O)N1CCC[C@H]1C(=O)N[C@H]1CSSC[C@@H](C(=O)N[C@@H](Cc2ccc(-c3ccccc3)cc2)C(=O)N[C@@H](CC(=O)O)C(=O)NCc2cccc(CNC(=O)CN(CCNC(=O)C(CN(CCN(CC(=O)O)CC(=O)O)CC(=O)O)N(CC(=O)O)CC(=O)O)CCNC(=O)C(CN(CCN(CC(=O)O)CC(=O)O)CC(=O)O)N(CC(=O)O)CC(=O)O)c2)NC(=O)[C@H]([C@@H](C)O)NC(=O)CNC(=O)[C@H](Cc2ccc(O)cc2)NC(=O)[C@H](Cc2ccc(O)cc2)NC(=O)[C@H](CC(=O)O)NC1=O` (some centres unmarked) [Compound 5], the “binding to fibrinogen (from relaxivity enhancement)” value in data set [4] is given as “does not bind/binds weakly to fibrinogen”. Also, in data set [5] (30 μM fibrin gel (FBN)), the “ΔEl^‡ (temperature dependence of τloc)” value was 7.17 ± 0.48 kcal/mol. The “τloc^37” value in data set [5] (30 μM fibrin gel (FBN), 37 °C) is recorded as 720±20 ps. Moreover, in data set [5] (30 μM fibrin gel (FBN), Lipari-Szabo model), the “τR^37 (global)” value was >20,000 (NA) ps. For the same compound, in data set [5] (30 μM fibrin gel (FBN), dimensionless order parameter), the “F^2” value is on record as 0.08 ±0.02. In addition, the “fraction bound to fibrin” value in data set [5] (50 μM 5 in 30 μM fibrin gel, based on the measured binding constant) was found to be 81%. Besides, in data set [5] (bound to fibrin at 1.5T), the “relaxivity per Gd” value was determined as 18 mM⁻¹ s⁻¹ and the relaxivity per molecule worked out at 72 mM⁻¹ s⁻¹. Also, the “global τR” value in data set [5] (fibrin-bound, best fits) is given as more than 20 ns. Moreover, in data set [6], the “ΔER^‡ (temperature dependence of τR)” value came out at 5.95 ± 0.096 kcal/mol, the “ΔH^‡ (temperature dependence of τm)” value amounted to 10.9 ± 0.335 kcal/mol and the “Δ^2 ×10^−18” value turned out to be 10.2 ±0.5 s^2. Moreover, in data set [6] (37 °C), the “τm^37” value was found to be 124±9 ns and the “τv^37” value came to 18.0 ±1.7 ps. In addition, in data set [6] (37 °C, isotropic model of rotation), the “τR^37” value is 389±4 ps. Also, the “F^2” value in data set [6] (dimensionless) was 1. For the same compound, in data set [7], the “efficacy in arterial thrombosis model” value is “showed efficacy”.

The values above are taken from publication PMC2880861 (New journal of chemistry = Nouveau journal de chimie, 2010).
